Experimental data: patent US20180305450A1 (AstraZeneca / MedImmune, published 2018)
Numbering of substitutions follows the chain as printed. Numbers in names are those of the source.

T1: recombinant biotinylated rat PAR2 extracellular residues 1-75, N-terminal AviTag, C-terminal Flag and poly … (rat, UniProt Q63645 26-75, not fully specified; biotin on the AviTag (enzymatic biotinylation))
T1 construct: range 1-75; not shown: N-terminal AviTag (Avidity LLC); C-terminal Flag and poly Histidine tags
T1 chain (looked up): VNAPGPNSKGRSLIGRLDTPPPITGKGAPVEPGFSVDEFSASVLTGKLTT

B1: Par0067 Fab (Fab, V domains shown)
VH: EVQLLESGGGLVQPGGSLRLSCAASGFTFSSYAMNWVRQAPGKGLEWVSTISYSGSLISYADSVKGRFTISRDNSKNTLYLQMNSLRAEDTAVYYCARINNDPMDVWGQGTLVTVSS
VL: SIELTQPPSVSVSPGQTASITCSGDNLGKKYVQWYQQKPGQSPVLVIYDDSNRPSGIPERFSGSNSGNTATLTISGTQAMDEADYYCQTWDGNPTTGETNVFGGGTKLTVL
notes: Fab; also called ZZ15D2-D02
B2: PaB670076 Fab (Fab, V domains shown)
VH: B1 VH
VL: B1 VL with Q88H, G92H, N93H, P94H, T99H
notes: Fab; also called ZZ1NHH-F09
B3: PaB670084 Fab (Fab, V domains shown)
VH: B1 VH with Y53H, S56H, S59H, Y60H, V64H
VL: B1 VL
notes: Fab; also called ZZ1PXA-A05
B4: PaB670128 Fab (Fab, V domains shown)
VH: B1 VH with S54H, S56H, L57H, V64H, K65H, G66H, N100H, N101H
VL: B1 VL
notes: Fab; also called ZZ1RUE-A01
B5: Par0067 IgG (antibody, V domains shown)
VH: B1 VH
VL: B1 VL
notes: IgG1-TM (L234F, L235E, P331S), human lambda light chain; also called ZZ15D2-D02; parent Par0067 IgG
B6: PaB670149 IgG (antibody, V domains shown)
VH: B1 VH with S54H, S56H, L57H, V64H, K65H, G66H, N101H
VL: B1 VL with Q88H, D91H, G92H, N93H, T96H, T99H
notes: IgG1-TM (L234F, L235E, P331S), human lambda light chain
B7: PaB670146 IgG (antibody, V domains shown)
VH: B1 VH with N101H
VL: B1 VL with Q88H, D91H, G92H, N93H, T96H, T99H
notes: as for B6
B8: PaB670151 IgG (antibody, V domains shown)
VH: B1 VH with N101H
VL: B1 VL with Q88H, G92H, N93H, P94H, T99H
notes: as for B6
B9: PaB670142 IgG (antibody, V domains shown)
VH: B1 VH with N100H, N101H
VL: B1 VL with T96H
notes: as for B6
B10: PaB670084 IgG (antibody, V domains shown)
VH: B1 VH with Y53H, S56H, S59H, Y60H, V64H
VL: B1 VL
notes: IgG1-TM (L234F, L235E, P331S), human lambda light chain; also called ZZ1PXA-A05
B11: PaB670159 IgG (antibody, V domains shown)
VH: B1 VH with S54H, S56H, L57H, V64H, K65H, G66H, N101H
VL: B1 VL with N93H, P94H, T95H, V101H
notes: as for B6
B12: PaB670128 IgG (antibody, V domains shown)
VH: B1 VH with S54H, S56H, L57H, V64H, K65H, G66H, N100H, N101H
VL: B1 VL
notes: IgG1-TM (L234F, L235E, P331S), human lambda light chain; also called ZZ1RUE-A01
B13: PaB670153 IgG (antibody, V domains shown)
VH: B1 VH with S54H, S56H, L57H, V64H, K65H, G66H
VL: B1 VL with Q88H, G92H, N93H, P94H, T99H
notes: as for B6
B14: PaB670152 IgG (antibody, V domains shown)
VH: B1 VH with N100H, N101H
VL: B1 VL with Q88H, G92H, N93H, P94H, T99H
notes: as for B6
B15: PaB670045 IgG (antibody, V domains shown)
VH: B1 VH with N100H, N101H
VL: B1 VL
notes: IgG1-TM (L234F, L235E, P331S), human lambda light chain; also called ZZ1KX3-F01
B16: PaB670143 IgG (antibody, V domains shown)
VH: B1 VH with S54H, S56H, L57H, V64H, K65H, G66H
VL: B1 VL with T96H
notes: as for B6
B17: PaB670048 IgG (antibody, V domains shown)
VH: B1 VH with N100H, N101H, V106H
VL: B1 VL
notes: IgG1-TM (L234F, L235E, P331S), human lambda light chain; also called ZZ1KX4-E11
B18: PaB670144 IgG (antibody, V domains shown)
VH: B1 VH with S54H, S56H, L57H, V64H, K65H, G66H, N101H
VL: B1 VL with T96H
notes: as for B6
B19: PaB670141 IgG (antibody, V domains shown)
VH: B1 VH with N101H
VL: B1 VL with T96H
notes: as for B6
B20: PaB670163 IgG (antibody, V domains shown)
VH: B1 VH with S54H, S56H, L57H, V64H, K65H, G66H, N101H
VL: B1 VL with Q88H, N93H, P94H, V101H
notes: as for B6
B21: PaB670148 IgG (antibody, V domains shown)
VH: B1 VH with S54H, S56H, L57H, V64H, K65H, G66H
VL: B1 VL with Q88H, D91H, G92H, N93H, T96H, T99H
notes: as for B6

Target: T2, recombinant biotinylated human PAR2 extracellular domain (residues 1-75), N-terminal AviTag, C-terminal Flag … (human, UniProt P55085 26-75, biotin on the AviTag (enzymatic biotinylation))
T2 construct: also called Bio-human-PAR2 ECD; human PAR2 ECD; not shown: N-terminal AviTag (Avidity LLC); C-terminal Flag and poly Histidine tags
Assay: Biacore SPR 25 C, pH 6.0
Description: (§1) The experiments were carried out using recombinant human, rat and cynomolgus PAR2 with an N-terminal Avi tag and C-terminal Flag-His tags.
(§2) Streptavidin was covalently immobilised to a C1 chip surface using standard amine coupling techniques at a concentration of 4 μg/ml in 10 mM Sodium acetate pH 4.5. A final streptavidin surface of approximately 30-100 RUs was achieved. Recombinant biotinylated PAR2 species (produced in-house) were titrated onto the streptavidin chip surface at 4 μg/ml in HBS-EP+ buffer to enable Fab binding at saturation (Rₘₐₓ). This low level of analyte binding ensured minimal mass transport effects.
(§3) The anti-PAR2 Fabs were serially diluted (0.39 nM-25 nM) in HBS-EP+ buffer pH 7.4 or MES-BS-EP+ pH 6.0 buffer or in MES-BS-EP+ pH 5.6 buffer and flowed over the chip at 50 μl/min, with 3 minutes association and up to 30 minutes dissociation. Multiple buffer-only injections were made under the same conditions to allow for double reference subtraction of the final sensorgram sets, which were analysed using the BiaEval software (version 2.0.1). The chip surface was fully regenerated with pulses of 4 M MgCl₂.

T2 sequence (P55085 26-75): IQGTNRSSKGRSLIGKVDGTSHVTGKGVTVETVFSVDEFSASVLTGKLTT

Binder | Kd | koff | kon
B1 | 0.0312 nM | 9.72e-05 s⁻¹ | 3.12e+06 M⁻¹ s⁻¹
B2 | 4.61 nM | 0.00514 s⁻¹ | 1.11e+06 M⁻¹ s⁻¹
B3 | 4.41 nM | 0.00763 s⁻¹ | 1.73e+06 M⁻¹ s⁻¹
B4 | 20.1 nM | 0.0457 s⁻¹ | 2.22e+06 M⁻¹ s⁻¹

Target: T1, recombinant biotinylated rat PAR2 …
Assay: Biacore SPR 25 C, pH 6.0
Description: as §1, §2, §3

Binder | Kd | koff | kon
B1 | 0.17 nM | 0.000544 s⁻¹ | 3.21e+06 M⁻¹ s⁻¹
B2 | 30.7 nM | 0.051 s⁻¹ | 1.66e+06 M⁻¹ s⁻¹
B3 | 10.8 nM | 0.0277 s⁻¹ | 2.57e+06 M⁻¹ s⁻¹
B4 | 38.5 nM | 0.0689 s⁻¹ | 1.79e+06 M⁻¹ s⁻¹

Target: T2, recombinant biotinylated human PAR2 …
Assay: Biacore SPR 25 C, pH 7.4
Description: as §1, §2, §3

Binder | Kd | koff | kon
B1 | 0.0075 nM | 4.96e-05 s⁻¹ | 6.66e+06 M⁻¹ s⁻¹
B2 | 0.207 nM | 0.00121 s⁻¹ | 5.84e+06 M⁻¹ s⁻¹
B3 | 0.25 nM | 0.00162 s⁻¹ | 6.49e+06 M⁻¹ s⁻¹
B4 | 0.613 nM | 0.00365 s⁻¹ | 5.95e+06 M⁻¹ s⁻¹

Target: T1, recombinant biotinylated rat PAR2 …
Assay: Biacore SPR 25 C, pH 7.4
Description: as §1, §2, §3

Binder | Kd | koff | kon
B1 | 0.0376 nM | 0.000194 s⁻¹ | 5.16e+06 M⁻¹ s⁻¹
B2 | 1.69 nM | 0.0107 s⁻¹ | 6.34e+06 M⁻¹ s⁻¹
B3 | 1.23 nM | 0.00837 s⁻¹ | 6.83e+06 M⁻¹ s⁻¹
B4 | 3.02 nM | 0.0196 s⁻¹ | 6.49e+06 M⁻¹ s⁻¹

Target: T2, recombinant biotinylated human PAR2 …
Assay: HTRF competition with Dylight650-Par0067 IgG, IgG
Description: (§4) Parent Par0067 IgG (used as a reference/control in all assays) was pre-diluted to give a 2000 nM stock in each of the two different pH assay buffers (in order to give a top final assay IgG concentration of 500 nM). All test, or other reference/control IgG were tested from a top final assay concentration of ¼ of the neat undiluted sample (i.e. no pre-dilution step was performed). Duplicate 11 point 1:3 serial dilutions then were prepared on 384 well polypropylene Greiner plates in each of the two assay buffers (pH 7.4 & 6.0). 5 μl per well was transferred from the relevant pH IgG dilution plate to the corresponding assay plate (pH 7.4 and pH 6.0). 5 ul of the appropriate pH assay buffer was added to the total and non-specific wells.
(§5) For multipoint dose response curves % Specific Binding values were plotted versus test purified antibody concentration (scFv or IgG). IC₅₀ values were determined via a sigmoidal dose response inhibition variable slope curve fit (4 parameter logistic equation) using Graphpad Prism Software.

Binder | Fold IC50 (pH 6.0 v pH 7.4) | Fold IC50 pH 7.4 (Variant v Par0067)
B5 | 0.95 fold | 1 fold
B6 |  | 605 fold
B7 | 8.5 fold | 110 fold
B8 | 11.5 fold | 83.2 fold
B9 | 14 fold | 5.7 fold
B10 | 6.3 fold | 12.3 fold
B11 |  | 193 fold
B12 |  | 39.3 fold
B13 | 17.6 fold | 111 fold
B14 | 15.1 fold | 526 fold
B15 | 8.9 fold | 3.5 fold
B16 | 11.8 fold | 4 fold
B17 | 8.5 fold | 6.8 fold
B18 | 19.5 fold | 34.7 fold
B19 | 5.9 fold | 2.8 fold
B20 |  | 174 fold
B21 | 17.4 fold | 58.1 fold

Target: T2, recombinant biotinylated human PAR2 …
Assay: HTRF competition with Dylight650-Par0067 IgG, pH 6.0, IgG
Description: as §4, §5

Binder | IC50
B5 | 0.79 nM
B7 | 784 nM
B8 | 796 nM
B9 | 67.1 nM
B10 | 64.6 nM
B13 | 1640 nM
B14 | 6600 nM
B15 | 25.8 nM
B16 | 40 nM
B17 | 48.2 nM
B18 | 565 nM
B19 | 13.9 nM
B21 | 845 nM

Target: T2, recombinant biotinylated human PAR2 …
Assay: HTRF competition with Dylight650-Par0067 IgG, pH 7.4, IgG
Description: as §4, §5

Binder | IC50
B5 | 0.835 nM
B6 | 505 nM
B7 | 91.9 nM
B8 | 69.5 nM
B9 | 4.8 nM
B10 | 10.3 nM
B11 | 161 nM
B12 | 32.8 nM
B13 | 93 nM
B14 | 439 nM
B15 | 2.9 nM
B16 | 3.4 nM
B17 | 5.7 nM
B18 | 29 nM
B19 | 2.4 nM
B20 | 145 nM
B21 | 48.5 nM
